Reference: US20180244758A1 (MAPP BIOPHARMACEUTICAL, published 2018)

Assays:
[1] = biological target: T1, RESTV GP on rVSV particles (Reston virus (RESTV), UniProt Q66799 34-677); test: cell-based or functional assay
T1 sequence: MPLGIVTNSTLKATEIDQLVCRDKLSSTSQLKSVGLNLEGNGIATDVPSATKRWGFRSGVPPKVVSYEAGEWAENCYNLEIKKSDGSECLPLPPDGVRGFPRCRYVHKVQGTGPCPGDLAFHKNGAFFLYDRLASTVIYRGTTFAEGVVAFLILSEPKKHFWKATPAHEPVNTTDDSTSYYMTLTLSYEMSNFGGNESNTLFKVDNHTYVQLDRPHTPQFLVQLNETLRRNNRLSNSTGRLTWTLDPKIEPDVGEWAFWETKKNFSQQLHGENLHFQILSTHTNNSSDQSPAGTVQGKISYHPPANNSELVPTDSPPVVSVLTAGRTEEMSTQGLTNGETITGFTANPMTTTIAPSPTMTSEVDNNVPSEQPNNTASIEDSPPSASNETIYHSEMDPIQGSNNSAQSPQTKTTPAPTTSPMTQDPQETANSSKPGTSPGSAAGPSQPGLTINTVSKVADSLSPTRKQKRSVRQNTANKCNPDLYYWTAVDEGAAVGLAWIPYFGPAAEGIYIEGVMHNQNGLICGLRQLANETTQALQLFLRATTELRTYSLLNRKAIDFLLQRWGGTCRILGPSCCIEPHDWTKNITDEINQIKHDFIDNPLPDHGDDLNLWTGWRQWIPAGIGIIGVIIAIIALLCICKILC

RESTV GP = biological target: T2, RESTV GP (Reston virus (RESTV), UniProt Q66799 34-638); test: ELISA, GP antigen coated
T2 sequence: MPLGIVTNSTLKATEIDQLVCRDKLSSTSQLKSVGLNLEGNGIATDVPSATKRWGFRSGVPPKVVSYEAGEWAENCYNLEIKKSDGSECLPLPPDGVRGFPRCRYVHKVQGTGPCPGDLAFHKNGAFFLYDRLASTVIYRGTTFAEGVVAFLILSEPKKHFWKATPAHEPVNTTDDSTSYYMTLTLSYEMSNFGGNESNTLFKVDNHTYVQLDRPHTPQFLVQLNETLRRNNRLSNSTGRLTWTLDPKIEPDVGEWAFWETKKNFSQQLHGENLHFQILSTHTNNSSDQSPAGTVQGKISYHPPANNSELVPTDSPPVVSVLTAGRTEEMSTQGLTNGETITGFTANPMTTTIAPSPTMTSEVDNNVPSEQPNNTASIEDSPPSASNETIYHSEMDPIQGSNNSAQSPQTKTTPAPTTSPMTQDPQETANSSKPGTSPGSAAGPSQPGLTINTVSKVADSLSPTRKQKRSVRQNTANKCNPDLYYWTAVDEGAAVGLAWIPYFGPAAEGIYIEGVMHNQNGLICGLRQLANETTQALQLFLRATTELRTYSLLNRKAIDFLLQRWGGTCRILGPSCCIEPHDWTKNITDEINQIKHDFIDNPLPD

B1: mAb PE-87 (antibody, V domains shown)
VH: QVQLVQSGVTLVQPGGSLRVSCAASGFTFSSYAMSWVRQAPGKGLEWVSAISGLGGSTYYADSVKGRFTISRDNSKNTLYLQMNSLRAEDTAVYYCAKDHRVWAAGYHFDYWGQGALVTVSS
VL: DIVLTQSPSTLSASVGDRVTITCRASQSISSWLAWYQQKPGEAPKLLISDASSLESGVPSRFSGSGSGTEFTLTISSLQPDDFATYYCQQYYSSPTFGGGTKVEIK
IC50 (nM), neutralization of rVSV-GP [1]: 0.1 nM

B2: mAb PE-16 (antibody, V domains shown)
VH: QVQLVQSGAEVTKPGASVKVSCKASGYTFTTYYMHWVRQAPGQGLEWVGIINPSGGITRYAQKFQGRVTLTRDTSTTTVYMELSSLRSEDTAVYYCARDRYPVLFATDYGMDVWGQGTTVTVSS
VL: DIVMTQSPATLSLSPGERATLSCRASQSVSGYLAWYQQKPGQAPRLLIYDASNRATGIPARFSGSGSGTDFTLTISSLEPEDFAVYYCQQRSIWPPGVTFGGGTKVEIK
binding result (RESTV GP): no binding (tested: 0.2 µg/ml)
